The values below come from patent US20220144937A1 (JIANGSU HENGRUI MEDICINE, published 2022).

Numbering of substitutions follows the chain as printed.

Sequences and labels used below:
T1: human IL-5 with his-tag (rhIL-5-his) (human, UniProt P05113 20-134)
T1 construct: It was expressed in HEK293 and purified from the supernatant; also called HuIL-5; recombinant human IL-5
T1 sequence: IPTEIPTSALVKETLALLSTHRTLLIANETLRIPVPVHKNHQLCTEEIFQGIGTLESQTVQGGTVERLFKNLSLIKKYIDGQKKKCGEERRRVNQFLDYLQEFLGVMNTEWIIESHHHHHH

T2: cyno IL-5 with his-tag (cyno (paragraph 156 says rhesus), UniProt P48093 20-134 (rhesus entry))
T2 construct: also called rhesus IL-5 with His-tag; monkey IL-5
T2 sequence: T1 sequence with T7A, D80G

B1: mAb1779 (antibody, V domains shown)
VH: QVKLLQSGAALVKPGDSVKMSCKASGYTFTDYIIHWVKQSHGKSLEWIGYFNPNSGGSNYNENFKRKATLTADKSSSTAYLEFSRVTSEDSAIYYCGRRIAWDHWYFDFWGPGTMVTVSS
VL: DIQMTQSPASLSASLGETVSIECLASEGISNDVAWYQQKSGRSPQLLVYAASRLQDGVPSRFSGSGSGTRYFFKISGMQPEDEADYFCQQGYKTPLTFGSGTKLEIK
notes: Murine hybridoma antibody
B2: mAb1773 (antibody, V domains shown)
VH: EVQLQQSLAELVRPGASVTLSCTASGFNIKNTYIHWVKQRPEQGLEWIGRIDPANGDTKHGPKFQGKATITADTSSNTAYLQFSSLTSEDTAIYYCFRYGIYPDHWGQGTPLTVSS
VL: QIVLTQSPALMSASPGEKVTMTCSASSSVNYIYWYQQKPRSSPKPWIYLTATLASGVPARFSGSGSGTSFSLTISRMEAEDAATYYCQQWNSYPYTFGGGTKLEIE
notes: Murine hybridoma antibody
B3: mAb1780 (antibody, V domains shown)
VH: QVKLLQSGAALVKPGDSVKMSCKASDYTFTEYLIHWVKQSQGRSLEWIGYINPYSGGTVYNEKFKSKATLTVDKFSSTAYMEFRRLTFEDSAIYYCARDGGYSDPLDYWGQGVMVTVSS
VL: DTVLTQSPALAVSPGERVSISCRASEGLTSYMHWYQQKPGQQPKLLIYKASNLASGVPARFSGSGSGTDFTLTIDPVEADDAATYFCQQNWNDPWTFGGGTKLELK
notes: Murine hybridoma antibody
B4: h1773-007 (antibody, human IgG1, kappa, V domains shown)
VH: EVQLVESGGGLVQPGGSLKLSCAASGFTISNTYIHWVKQASGKGLEWIGRIDPAVGDTKHGPKFQGRFTISADDSKNTAYLQMNSLKTEDTAVYYCFRYGIYPDHWGQGTLVTVSS
VL: DIQLTQSPSSLSASVGDRVTITCSASSSVNYIYWYQQKPGKSPKPWIYLTATLASGVPSRFSGSGSGTDFTLTISSLQPEDFATYYCQQWNSYPYTFGGGTKVEIKR
B5: Hu39D10 (antibody, human IgG4 S228P, kappa, V domains shown)
VH: EVQLVESGGGLVQPGGSLRLSCAVSGLSLTSNSVNWIRQAPGKGLEWVGLIWSNGDTDYNSAIKSRFTISRDTSKSTVYLQMNSLRAEDTAVYYCAREYYGYFDYWGQGTLVTVSS
VL: DIQMTQSPSSLSASVGDRVTITCLASEGISSYLAWYQQKPGKAPKLLIYGANSLQTGVPSRFSGSGSATDYTLTISSLQPEDFATYYCQQSYKFPNTFGQGTKVEVKR
notes: Anti-IL-5 antibody of WO2012083370A1, used as positive control; also called positive control; positive antibody
B6: h1779-014 (antibody, human IgG1, kappa, V domains shown)
VH: EVQLVQSGAEVKKPGASVKVSCKASGYTFTDYIIHWVKQAPGQGLEWIGYFNPNSGGSNYNENFKRKATMTADKSISTAYLEFSRLRSEDTAVYYCARRIAWDHWYFDFWGQGTMVTVSS
VL: DIQMTQSPSSLSASVGDRVTITCLASEGISNDVAWYQQKPGKSPKLLVYAASRLQDGVPSRFSGSGSGTDYTFTISSLQPEDIATYYCQQGYKTPLTFGQGTKLEIKR
notes: See recheck
B7: h1706-006 (antibody, human IgG1, kappa, V domains shown)
VH: EVQLVESGGGLVQPGGSLRLSCAASGFTFSHYYMAWVRQAPGKGLEWVSSINYEGNSAYYGDSVKGRFTISRDNSKNTLYLQMNSLRAEDTAVYYCATETLRESLDYWGQGTMVTVSS
VL: DIQMTQSPSSVSASVGDRVTITCRASQDIGNYLSWYQQKPGKSPKLLIYSASNLEVGVPSRFSGSGSGTDFTLTISSLQPEDFATYYCLQHKQFPRTFGGGTKVEIKR
notes: Constant regions as for h1706-003
B8: h1705-007 (antibody, human IgG1, kappa, V domains shown)
VH: B7 VH with N52S, N56D, S57I, A58T, T98S, E99Q, L105F, M113L
VL: B7 VL with G30A, S50G, A51T, G66R, H91D, Q93E
B9: h1706-004 (antibody, human IgG1, kappa, V domains shown)
VH: B7 VH with S49T, V93T
VL: B7 VL with S43A
B10: h1706-007 (antibody, human IgG1, kappa, V domains shown)
VH: B7 VH with S49T, V93T
VL: B7 VL
B11: h1705-005 (antibody, human IgG1, kappa, V domains shown)
VH: B7 VH with S49T, N52S, N56D, S57I, A58T, V93T, T98S, E99Q, L105F, M113L
VL: B7 VL with G30A, S43A, S50G, A51T, H91D, Q93E
B12: h1705-004 (antibody, human IgG1, kappa, V domains shown)
VH: B7 VH with N52S, N56D, S57I, A58T, T98S, E99Q, L105F, M113L
VL: B7 VL with G30A, S43A, S50G, A51T, H91D, Q93E
B13: h1705-010 (antibody, human IgG1, kappa, V domains shown)
VH: B7 VH with N52S, N56D, S57I, A58T, T98S, E99Q, L105F, M113L
VL: B7 VL with G30A, L47V, S50G, A51T, G66R, T69S, F71Y, Y87F, H91D, Q93E
B14: h1706-003 (antibody, human IgG1, kappa, V domains shown)
VH: B7 VH
VL: B7 VL with S43A
B15: h1705-011 (antibody, human IgG1, kappa, V domains shown)
VH: B7 VH with S49T, N52S, N56D, S57I, A58T, V93T, T98S, E99Q, L105F, M113L
VL: B7 VL with G30A, L47V, S50G, A51T, G66R, T69S, F71Y, Y87F, H91D, Q93E
B16: h1705-006 (antibody, human IgG1, kappa, V domains shown)
VH: B7 VH with N52S, N56D, S57I, A58T, T98K, E99Q, L105F, M113L
VL: B7 VL with G30A, S50G, A51T, G66R, H91D, Q93E
B17: h1705-009 (antibody, human IgG1, kappa, V domains shown)
VH: B7 VH with N52S, N56D, S57I, A58T, T98K, E99Q, L105F, M113L
VL: B7 VL with G30A, L47V, S50G, A51T, G66R, T69S, F71Y, Y87F, H91D, Q93E
B18: h1705-003 (antibody, human IgG1, kappa, V domains shown)
VH: B7 VH with N52S, N56D, S57I, A58T, T98K, E99Q, L105F, M113L
VL: B7 VL with G30A, S43A, S50G, A51T, H91D, Q93E

In the first assay the target is T1, human IL-5 with his-tag (rhIL-5-his). The assay is described as follows: Biacore. Here is the method: (§1) The affinity of the murine IL-5 antibody to be tested with human IL-5 was measured by Biacore T200 (GE) instrument.
(§2) The protein A biosensor chip was used to affinity capture of the molecules to be tested, and then the antigen (recombinant human and cyno IL-5 prepared in Example 1) flowed through the surface of the chip, and the reaction signal was detected in real time with the Biacore T200 instrument to obtain the binding and dissociation curves. After the dissociation of each experimental cycle was completed, the biosensor chip was washed and regenerated with glycine-hydrochloric acid regeneration solution (pH 1.5). BIA evaluation version 4.1 GE software was used to fit the data against (1:1) Langmuir model, and the affinity value was obtained and shown in Table 13.
(In general: In SPR one partner is held on a chip, and binding of the other changes the refractive index at the surface.)
For B1, the Kd was 0.458 nM.

For the molecule B2, the Kd is 0.129 nM.

B3 returned a dissociation constant Kd of 0.0899 nM.

The target is the same in a further assay. In words: cell-based or functional assay.
For B4, the “IC50 of inhibition of IL-5 induced TF1 cell proliferation” value amounted to 0.38 nM.

Consider B5, for which the “IC50 of inhibition of IL-5 induced TF1 cell proliferation” value is 0.3 nM.

B6: the “IC50 of inhibition of IL-5 induced TF1 cell proliferation” value is 0.2 nM.

With B7, the “IC50 of inhibition of IL-5 induced TF1 cell proliferation” value came to 0.34 nM.

With B8, the “IC50 of inhibition of IL-5 induced TF1 cell proliferation” value was found to be 0.25 nM.

With B9, the “IC50 of inhibition of IL-5 induced TF1 cell proliferation” value was 0.3 nM.

Take B10: the “IC50 of inhibition of IL-5 induced TF1 cell proliferation” value is 0.28 nM.

Turning to B11, the “IC50 of inhibition of IL-5 induced TF1 cell proliferation” value worked out at 0.3 nM.

B12: the “IC50 of inhibition of IL-5 induced TF1 cell proliferation” value was 0.3 nM.

Consider B13, for which the “IC50 of inhibition of IL-5 induced TF1 cell proliferation” value turned out to be 0.3 nM.

Turning to B14, the “IC50 of inhibition of IL-5 induced TF1 cell proliferation” value was determined as 0.31 nM.

For the molecule B15, the “IC50 of inhibition of IL-5 induced TF1 cell proliferation” value came out at 0.28 nM.

The next assay has the same target. The assay is described as follows: cell-based or functional assay. This is another data set of the same source.
For B5, the “IC50 of blocking IL-5 induced eosinophil adhesion” value is 11.8 ng/mL.

A further assay has the same target. In words: Biacore T200, antibody captured on protein A chip, antigen in flow, 1:1 Langmuir. The procedure:
as §1, §2
Molecule B1 gave a Kd of 0.458 nM.

Take B2: the Kd came out at 0.129 nM.

In the case of B3, binding was put at a Kd of 0.0899 nM.

In a further assay the target is T2, cyno IL-5 with his-tag. The description is as above. Here is the method: as §1, §2
Molecule B1 gave a Kd of 9.98 nM.

In the case of B2, the Kd is 0.476 nM.

B3 yielded a Kd of 0.312 nM.

The target in another assay is T1, human IL-5 with his-tag (rhIL-5-his). The assay is described as above. This is another data set of the same source. Here is the method: The affinity of the humanized IL-5 antibody to be tested with human IL-5 was measured by Biacore T200 (GE) instrument.
as §2, with “(prepared” for “(recombinant human and cyno IL-5 prepared”, “14.” for “13.”
B4 yielded a Kd of 0.207 nM.

B6 showed a Kd of 0.412 nM.

In the case of B7, the Kd was 0.0173 nM.

In turn, B8 had a Kd of 0.0221 nM.

B11 registered a Kd of 0.0216 nM.

Consider B16, for which binding was put at a Kd of 4.11 nM.

As for B17, the affinity, expressed as Kd, was 4.55 nM.

Molecule B12 yielded a Kd of 0.0214 nM.

B18 yielded a Kd of 3.35 nM.

B13: the Kd turned out to be 0.0205 nM.

Molecule B14 displayed an equilibrium dissociation constant (Kd) of 0.0189 nM.

As for B15, the dissociation constant (Kd) is 0.023 nM.

A further assay shares this target. The assay is described as follows: FACS blocking: biotin-IL-5 (100 ng/ml) binding to IL-5Rα/β-CHOS cells, antibody diluted. The procedure: Particular method was as follows: CD-CHO comprising […] and […] zeozin was used to culture CHO-S-IL-5Rα and β. During cell culture, the concentration should not exceed 3×10⁶ cells/ml. IL-5Rα/β-CHOS cells in good condition were centrifuged (at 1000 rpm, 5 min), and washed once with 10% FBS in PBS, and the cells were counted, the cell concentration was adjusted to 4×10⁶ cells/ml, and 25 μl was taken out and added into a round-bottom 96-well plate. The antibody to be tested was diluted with PBS solution comprising 10% FBS. The initial concentration was 200 μg/ml, and diluted at 1:10 for 8 gradient dilutions. 25 μl of 100 ng/ml IL-5 labeled by a biotin labeling kit (Tojin Chemical, LK03) was added, and fully mixed with 50 μl of diluted antibody at each concentration, and added into 96-well plate that has been added with cells, and incubated at 4° C. for 1 hour. After the incubation, the sample was centrifuged at 4° C. (400 g, 5 min), and the supernatant was removed, the plated was washed with 200 μl of pre-cooled PBS by centrifugation, repeated for twice; PE-Avidin secondary antibody diluted at 1:1333 was added and incubated in the dark at 4° C. for 40 min, centrifuged at 4° C.
Take IgG (antibody): the IC50 amounted to 8.78 µg/mL.

For the molecule B5, the IC50 was 0.0251 µg/mL.

In turn, B6 showed a 50% inhibitory concentration (IC50) of 0.0496 µg/mL.

A word on the Kd: it is a measure of binding affinity in units of concentration. Read a high Kd as lower affinity. Usually IC50 stands for the concentration that inhibits the measured activity by half. Low readings indicate higher potency, high ones lower potency.
